Laboratory results published in PMC5247705.

How the values were obtained:
[1] = target: rTLR5^N14-Avitag, biotinylated (zebrafish | hagfish) (UniProt B3DIN1); experiment: ELISA; competitive binding assay: 96-well plates coated with 0.2 μg/ml bsflagellin in PBS; serially diluted soluble flagellin and 0.02 μg/ml biotinylated rTLR5^N14-Avitag incubated together for 48 hours at 4 °C in 1% BSA in PBS-T; detected with HRP-streptavidin
[2] = target: human Toll-like receptor 5 on HEK293^TLR5 reporter cells (human) (UniProt O60602)
UniProt O60602, sequence (O60602 21-858): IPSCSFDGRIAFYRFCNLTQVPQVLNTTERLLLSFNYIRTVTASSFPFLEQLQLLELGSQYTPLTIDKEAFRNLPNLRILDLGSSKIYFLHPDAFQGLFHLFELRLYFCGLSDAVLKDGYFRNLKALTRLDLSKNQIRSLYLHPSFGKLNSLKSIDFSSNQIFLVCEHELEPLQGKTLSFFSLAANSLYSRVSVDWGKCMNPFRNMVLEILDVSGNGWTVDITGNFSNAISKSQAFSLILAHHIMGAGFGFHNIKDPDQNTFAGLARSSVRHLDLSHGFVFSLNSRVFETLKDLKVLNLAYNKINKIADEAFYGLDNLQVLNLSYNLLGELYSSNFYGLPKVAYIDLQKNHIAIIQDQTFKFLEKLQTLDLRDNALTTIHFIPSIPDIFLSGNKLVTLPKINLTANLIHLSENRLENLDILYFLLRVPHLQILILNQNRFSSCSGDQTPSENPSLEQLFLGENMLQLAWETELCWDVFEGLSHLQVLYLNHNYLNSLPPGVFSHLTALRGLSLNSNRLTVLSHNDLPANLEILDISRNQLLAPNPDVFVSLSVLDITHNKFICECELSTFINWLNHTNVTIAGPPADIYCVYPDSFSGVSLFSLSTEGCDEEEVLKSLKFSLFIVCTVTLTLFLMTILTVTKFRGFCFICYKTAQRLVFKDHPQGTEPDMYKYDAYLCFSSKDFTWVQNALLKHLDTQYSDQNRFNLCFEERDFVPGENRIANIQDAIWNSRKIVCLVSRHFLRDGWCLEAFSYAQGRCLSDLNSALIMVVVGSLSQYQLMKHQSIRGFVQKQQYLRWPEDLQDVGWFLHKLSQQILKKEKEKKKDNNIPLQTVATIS

[3] = target: rTLR5^N14, tag-free (zebrafish TLR5 LRRNT-LRR14 fused to the C-terminal fragment of hagfish variable lymphocyte receptor) (zebrafish | hagfish) (UniProt B3DIN1); experiment: SEC; purified flagellin and rTLR5^N14 incubated at 18 °C for 30 minutes; Superdex 200 10/300 column; elution monitored at 222 nm
[4] = target: rTLR5^N14, tag-free (zebrafish TLR5 LRRNT-LRR14 fused to the C-terminal fragment of hagfish variable lymphocyte receptor) (zebrafish | hagfish) (UniProt B3DIN1); experiment: native gel or EMSA; purified flagellin and rTLR5^N14 incubated at 18 °C for 30 minutes; native PAGE on 6% polyacrylamide gels at room temperature for 1.5 hours at 100 V
[5] = target: human Toll-like receptor 5 on HEK293^TLR5 reporter cells (human) (UniProt O60602); remark: listed apart in the source
[6] = target: human Toll-like receptor 5 on HEK293^TLR5 reporter cells (human) (UniProt O60602); remark: listed apart in the source
[7] = target: rTLR5^N14, tag-free (zebrafish TLR5 LRRNT-LRR14 fused to the C-terminal fragment of hagfish variable lymphocyte receptor) (zebrafish | hagfish) (UniProt B3DIN1); experiment: crystal structure; bsflagellin^cent-rTLR5^N14 complex, 2.1 Å; crystallised in 17.5% (w/v) PEG 300, 50 mM sodium acetate, pH 4.4 at 18 °C

Substance	IC50 [1] [pM]	EC50 (pM) for TLR5 signaling; NF-κB-inducible SEAP reporter in HEK293^TLR5 cells [2] [pM]	also measured
Shigella flexneri flagellin, full length (from UniProt Q08860 1-550) (natural protein)	414	1.57	
Escherichia coli flagellin, full length (from UniProt P04949 1-498) (natural protein)	517	1.13	
Bacillus subtilis flagellin (Hag), full-length wild type (from UniProt P02968 1-304) (natural protein)	204	1.18	stoichiometry N [3]: 1; stoichiometry N [4]: 1
Pseudomonas aeruginosa flagellin, full length (from UniProt P21184 1-394) (natural protein)	673	1.68	
bsflagellin R89A mutant (from UniProt P02968 1-304) (natural protein)			fold lower activity in the competitive rTLR5^N14-binding assay [1]: 10 fold; HEK293^TLR5 reporter cell activity, fold change of EC50 against bsflagellin^WT [5]: 49 fold
bsflagellin L93A mutant (from UniProt P02968 1-304) (natural protein)			TLR5 activity in the HEK293^TLR5 reporter cell assay, fold reduction against bsflagellin^WT [6]: 2 fold
bsflagellin E114A mutant (from UniProt P02968 1-304) (natural protein)			TLR5 activity in the HEK293^TLR5 reporter cell assay, fold reduction against bsflagellin^WT [6]: 6 fold
central region of bsflagellin (bsflagellin^cent; D1 residues 54-230) (from UniProt P02968 54-230) (domain or fragment)			stoichiometry N [7]: 1
Salmonella enterica subspecies enterica serovar Dublin flagellin, full length (from UniProt Q06971 1-505) (natural protein)	289	0.57	
